The subject of the data set is Escherichia coli TOP10. As to the kind of experiment: shrunken log2 fold change of peptide-encoding DNA abundance (4.5 h post-induction vs induction); higher = less antimicrobial activity (less host growth inhibition). The settings on record: time post-induction: 4.5 h; library: site-saturation at positions 5, 18, 19, 20.
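Further: peptides expressed intracellularly from a pBAD plasmid library in pooled LB shake-flask culture, induced with 0.3% L-arabinose, DNA abundance read by NGS, three biological replicates, DESeq2 with apeglm shrinkage.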

Take RRIRPRPPRLPRPRPRPIIEPRP: the “shrunken log2 fold change” value was -0.138.

RRIRYRPPRLPRPRPRPKKSPRP: the “shrunken log2 fold change” value is -0.298.

As for RRIRKRPPRLPRPRPRPLWIPRP, the “shrunken log2 fold change” value is 0.134.

Regarding RRIRDRPPRLPRPRPRPVQNPRP, the “shrunken log2 fold change” value was 0.577.

With RRIRSRPPRLPRPRPRPGFFPRP, the “shrunken log2 fold change” value was determined as 0.176.

As to RRIRARPPRLPRPRPRPWFMPRP, the “shrunken log2 fold change” value was -0.108.

As to RRIRDRPPRLPRPRPRPIFMPRP, the “shrunken log2 fold change” value was -0.285.

As to RRIRPRPPRLPRPRPRPQWPPRP, the “shrunken log2 fold change” value is -0.0484.

Regarding RRIRRRPPRLPRPRPRPAADPRP, the “shrunken log2 fold change” value came out at 0.594.

Take RRIRRRPPRLPRPRPRPYVPPRP: the “shrunken log2 fold change” value is -0.241.

Take RRIRARPPRLPRPRPRPPFNPRP: the “shrunken log2 fold change” value turned out to be 0.167.

Turning to RRIRIRPPRLPRPRPRPSTRPRP, the “shrunken log2 fold change” value was -0.54.

Turning to RRIRRRPPRLPRPRPRPHRAPRP, the “shrunken log2 fold change” value turned out to be 0.243.

For RRIRLRPPRLPRPRPRPSTMPRP, the “shrunken log2 fold change” value is -0.407.

Consider RRIRGRPPRLPRPRPRPCRIPRP, for which the “shrunken log2 fold change” value is -0.0785.

In the case of RRIRKRPPRLPRPRPRPWGMPRP, the “shrunken log2 fold change” value was found to be 0.142.

Consider RRIRCRPPRLPRPRPRPPRKPRP, for which the “shrunken log2 fold change” value amounted to 1.01.

On to RRIRCRPPRLPRPRPRPQMTPRP, for which the “shrunken log2 fold change” value turned out to be 0.218.

With RRIRYRPPRLPRPRPRPWVQPRP, the “shrunken log2 fold change” value was -0.544.

For RRIRGRPPRLPRPRPRPWWMPRP, the “shrunken log2 fold change” value is 0.322.

As to RRIRLRPPRLPRPRPRPTLQPRP, the “shrunken log2 fold change” value came to 0.0553.

Regarding RRIRMRPPRLPRPRPRPWNDPRP, the “shrunken log2 fold change” value is -0.112.

Regarding RRIRWRPPRLPRPRPRPMWMPRP, the “shrunken log2 fold change” value was -0.195.

On to RRIRARPPRLPRPRPRPWKLPRP, for which the “shrunken log2 fold change” value is -0.36.

As to RRIRRRPPRLPRPRPRPYYLPRP, the “shrunken log2 fold change” value was -0.308.

Take RRIRDRPPRLPRPRPRPPCLPRP: the “shrunken log2 fold change” value is -0.264.

In the case of RRIRCRPPRLPRPRPRPYCGPRP, the “shrunken log2 fold change” value is -0.888.

As for RRIRDRPPRLPRPRPRPNSHPRP, the “shrunken log2 fold change” value came out at 0.0526.

With RRIRWRPPRLPRPRPRPTTMPRP, the “shrunken log2 fold change” value was -0.0212.

On to RRIRQRPPRLPRPRPRPDSRPRP, for which the “shrunken log2 fold change” value was -0.0119.

Take RRIRNRPPRLPRPRPRPNYHPRP: the “shrunken log2 fold change” value was -0.801.

On to RRIRWRPPRLPRPRPRPLPMPRP, for which the “shrunken log2 fold change” value was found to be 0.105.

For RRIRCRPPRLPRPRPRPKFKPRP, the “shrunken log2 fold change” value is -0.287.

For the sequence RRIRHRPPRLPRPRPRPYQVPRP, the “shrunken log2 fold change” value was -0.0252.

As to RRIRGRPPRLPRPRPRPYQWPRP, the “shrunken log2 fold change” value stood at 0.0268.

Turning to RRIRARPPRLPRPRPRPGDTPRP, the “shrunken log2 fold change” value was 0.264.

As to RRIRFRPPRLPRPRPRPNMMPRP, the “shrunken log2 fold change” value was -0.444.

RRIRMRPPRLPRPRPRPERNPRP: the “shrunken log2 fold change” value worked out at 0.0507.

As to RRIRGRPPRLPRPRPRPKHTPRP, the “shrunken log2 fold change” value amounted to 0.743.

As for RRIRMRPPRLPRPRPRPSRKPRP, the “shrunken log2 fold change” value was 0.148.

RRIRDRPPRLPRPRPRPSCAPRP: the “shrunken log2 fold change” value is -0.0293.

Turning to RRIRTRPPRLPRPRPRPDSAPRP, the “shrunken log2 fold change” value was 0.0773.

RRIRCRPPRLPRPRPRPHLQPRP: the “shrunken log2 fold change” value is -0.319.

As to RRIRPRPPRLPRPRPRPNHTPRP, the “shrunken log2 fold change” value is -0.21.

Turning to RRIRVRPPRLPRPRPRPDWFPRP, the “shrunken log2 fold change” value is -0.597.

As for RRIRSRPPRLPRPRPRPANHPRP, the “shrunken log2 fold change” value is -0.606.

For RRIRSRPPRLPRPRPRPQGGPRP, the “shrunken log2 fold change” value was 0.171.

For RRIRARPPRLPRPRPRPNMDPRP, the “shrunken log2 fold change” value was -0.00909.

Take RRIRRRPPRLPRPRPRPHHIPRP: the “shrunken log2 fold change” value is -0.637.

In the case of RRIRPRPPRLPRPRPRPAQMPRP, the “shrunken log2 fold change” value came to 0.181.

(Values after the supplement of paper PMC9112550, “Optimization of the antimicrobial peptide Bac7 by deep mutational scanning” (BMC Biology, 2022).)
